Results published in patent US20110142851A1 (EMERGENT PRODUCT DEVELOPMENT SEATTLE, published 2011).
Like-named read-outs stand apart in the source and are kept apart here.

T1: hu HIL6 Fc dimer (dimeric human HIL6/mouse IgG Fc fusion protein) (human)
T1 construct: also called human hyper-IL6 (IL6R-IL6-mIgG); dimeric HIL6
T1 chain: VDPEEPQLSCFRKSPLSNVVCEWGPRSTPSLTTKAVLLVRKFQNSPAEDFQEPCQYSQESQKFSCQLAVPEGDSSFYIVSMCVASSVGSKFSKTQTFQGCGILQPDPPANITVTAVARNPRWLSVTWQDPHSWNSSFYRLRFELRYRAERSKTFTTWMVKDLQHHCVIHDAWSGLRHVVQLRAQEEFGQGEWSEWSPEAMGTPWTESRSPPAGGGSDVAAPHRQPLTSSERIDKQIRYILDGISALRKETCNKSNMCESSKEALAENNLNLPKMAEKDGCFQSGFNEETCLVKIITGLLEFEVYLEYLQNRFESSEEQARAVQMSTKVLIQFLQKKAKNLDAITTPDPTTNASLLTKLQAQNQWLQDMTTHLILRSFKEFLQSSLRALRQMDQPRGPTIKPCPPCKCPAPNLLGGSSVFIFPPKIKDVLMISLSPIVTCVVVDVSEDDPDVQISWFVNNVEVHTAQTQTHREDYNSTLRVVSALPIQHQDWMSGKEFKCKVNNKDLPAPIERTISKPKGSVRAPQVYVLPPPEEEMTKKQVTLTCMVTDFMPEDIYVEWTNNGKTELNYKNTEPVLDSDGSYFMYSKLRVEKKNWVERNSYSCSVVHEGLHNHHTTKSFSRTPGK

T2: sIL6R Fc dimer (UniProt P08887 20-358, limits assumed)
T2 construct: not shown: Fc
T2 sequence (looked up): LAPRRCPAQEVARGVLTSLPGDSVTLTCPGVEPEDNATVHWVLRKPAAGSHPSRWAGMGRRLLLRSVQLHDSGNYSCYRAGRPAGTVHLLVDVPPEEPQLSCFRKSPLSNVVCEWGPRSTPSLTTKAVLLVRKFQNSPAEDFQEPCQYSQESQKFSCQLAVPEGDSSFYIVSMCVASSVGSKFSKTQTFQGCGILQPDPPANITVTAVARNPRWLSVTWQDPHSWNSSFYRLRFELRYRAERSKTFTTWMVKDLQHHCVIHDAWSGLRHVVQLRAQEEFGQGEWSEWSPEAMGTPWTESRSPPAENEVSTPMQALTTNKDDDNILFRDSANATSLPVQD

T3: hu HIL6 AFH monomer (human)
T3 chain: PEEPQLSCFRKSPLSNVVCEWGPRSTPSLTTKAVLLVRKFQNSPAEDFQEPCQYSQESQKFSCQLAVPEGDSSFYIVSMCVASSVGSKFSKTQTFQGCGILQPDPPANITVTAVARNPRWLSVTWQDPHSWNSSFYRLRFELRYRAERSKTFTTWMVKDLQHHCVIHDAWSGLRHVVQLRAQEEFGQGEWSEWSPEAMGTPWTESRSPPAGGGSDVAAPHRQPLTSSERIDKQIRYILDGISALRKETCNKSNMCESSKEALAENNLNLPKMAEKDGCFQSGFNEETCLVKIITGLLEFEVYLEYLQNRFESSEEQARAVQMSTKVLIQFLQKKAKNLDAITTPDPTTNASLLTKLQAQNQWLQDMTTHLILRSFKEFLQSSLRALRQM

B1: TRU(XT6)-1002 (Fc fusion)
chain: LPAQVAFTPYAPEPGSTCRLREYYDQTAQMCCSKCSPGQHAKVFCTKTSDTVCDSCEDSTYTQLWNWVPECLSCGSRCSSDQVETQACTREQNRICTCRPGWYCALSKQEGCRLCAPLRKCRPGFGVARPGTETSDVVCKPCAPGTFSNTTSSTDICRPHQICNVVAIPGNASMDAVCTSTSPTRSMAPGAVHLPQPVSTRSQHTQPTPEPSTAPSTSFLLPMGPSPPAEGSTGDTGEPKSSDKTHTCPPCPAPEAAGAPSVFLFPPKPKDTLMISRTPEVTCVVVDVSHEDPEVKFNWYVDGVEVHNAKTKPREEQYNSTYRVVSVLTVLHQDWLNGKAYACAVSNKALPAPIEKTISKAKGQPREPQVYTLPPSRDELTKNQVSLTCLVKGFYPSDIAVEWESNGQPENNYKTTPPVLDSDGSFFLYSKLTVDKSRWQQGNVFSCSVMHEALHNHYTQKSLSLSPGQRHNNSSLNTRTQKARHSPNSEVQLLESGGGLVQPGGSLRLSCAASGFTFSFYQMHWVRQAPGKGLEWVSGIYPSGGYTKYADSVKGRFTISRDNSKNTLYLQMNSLRAEDTAVYYCARDLGYGSSWYYFDYWGQGTLVTVSSGGGGSGGGGSGGGGSQSALTQPASVSGSPGQSITISCSGTDSDVGGYNHVSWYQQHPGKAPKLIIYDVDHRPSGISNRFSGSKSGNTASLTISGLQAEDEADYYCSSYRSGSTYVFGTGTKVTVL
notes: The entry holds a signal peptide that the mature protein lacks
B2: recombinant human soluble IL6 receptor (receptor)
chain: T2 sequence (looked up)
notes: also called sIL6R; sIL-6R
B3: TRU(S6)-1019 (Fc fusion)
chain: EVQLLESGGGLVQPGGSLRLSCAASGFTFSWYLMHWVRQAPGKGLEWVSGIWPSGGHTLYADSVKGRFTISRDNSKNTLYLQMNSLRAEDTAVYYCAREPLLWFGELSYNWFDPWGQGTLVTVSSGGGGSGGGGSGGGGSQDIQMTQSPSSVSASVGDRVTITCRASQGISSWLAWYQQKPGKAPKLLIYAASSLQSGVPSRFSGSGSGTDFTLTISSLQPEDFATYYCQQANSFPLTFGGGTKVEIKTGEPKSSDKTHTCPPCPAPEAAGAPSVFLFPPKPKDTLMISRTPEVTCVVVDVSHEDPEVKFNWYVDGVEVHNAKTKPREEQYNSTYRVVSVLTVLHQDWLNGKAYACAVSNKALPAPIEKTISKAKGQPREPQVYTLPPSRDELTKNQVSLTCLVKGFYPSDIAVEWESNGQPENNYKTTPPVLDSDGSFFLYSKLTVDKSRWQQGNVFSCSVMHEALHNHYTQKSLSLSPGK
notes: SMIP (scFv - linker - CH2CH3)
B4: TRU(XT6)-1006 (Fc fusion)
chain: LPAQVAFTPYAPEPGSTCRLREYYDQTAQMCCSKCSPGQHAKVFCTKTSDTVCDSCEDSTYTQLWNWVPECLSCGSRCSSDQVETQACTREQNRICTCRPGWYCALSKQEGCRLCAPLRKCRPGFGVARPGTETSDVVCKPCAPGTFSNTTSSTDICRPHQICNVVAIPGNASMDAVCTSTSPTRSMAPGAVHLPQPVSTRSQHTQPTPEPSTAPSTSFLLPMGPSPPAEGSTGDTGEPKSSDKTHTCPPCPAPEAAGAPSVFLFPPKPKDTLMISRTPEVTCVVVDVSHEDPEVKFNWYVDGVEVHNAKTKPREEQYNSTYRVVSVLTVLHQDWLNGKAYACAVSNKALPAPIEKTISKAKGQPREPQVYTLPPSRDELTKNQVSLTCLVKGFYPSDIAVEWESNGQPENNYKTTPPVLDSDGSFFLYSKLTVDKSRWQQGNVFSCSVMHEALHNHYTQKSLSLSPGQRHNNSSLNTRTQKARHSPNSEVQLLESGGGLVQPGGSLRLSCAASGFTFSQYNMIWVRQAPGKGLEWVSWISSSGGTEYADSVKGRFTISRDNSKNTLYLQMNSLRAEDTAVYYCAKDRGYGSGSYGAYDAFDIWGQGTMVTVSSGGGGSGGGGSGGGGSQDIQMTQSPSSLSASVGDRVTITCQTSQSIDRYLNWYQQKAGEAPKLLIYAASSLQSGVPSRFSGSGSGTDFTLTISSLQPEDFASYYCQQSYRTPRTFGQGTKVEIK
notes: Xceptor, TNFRSF1B ectodomain N-terminal, anti-IL6xR domain C-terminal

Assays:
recombinant human TNF-α [1] = target: T4, recombinant human TNF-α (human, UniProt P01375 77-233); test: SPR Biacore T100, binder captured by anti-human Fc
T4 construct: also called rhTNFα

[2] = target: T1, hu HIL6 Fc dimer (dimeric human …); test: SPR Biacore T100, binder captured by anti-human Fc
sIL6R Fc dimer [3] = target: T2, sIL6R Fc dimer; test: SPR Biacore T100, binder captured by anti-human Fc
hu HIL6 AFH monomer [4] = target: T3, hu HIL6 AFH monomer; test: SPR Biacore T100, binder captured by anti-human Fc
[5] = target: B2; test: ELISA, Xceptor captured by anti-human Fc
TRU(XT6)-1042 = target: T5, TRU(XT6)-1042; test: ELISA, Xceptor captured by anti-human Fc
T5 construct: Xceptor, TNFRSF1B ectodomain N-terminal, anti-IL6xR domain C-terminal

recombinant human IL6 = target: T6, recombinant human IL6 (human, UniProt P05231 30-212); test: SPR Biacore T100, binder captured by anti-human Fc
T6 construct: also called rhIL6; IL6 monomer

[6] = target: T1, hu HIL6 Fc dimer (dimeric human …); test: SPR Biacore T100, binder captured by anti-human Fc
Procedure: (§1) Binding affinities and kinetic rate constants of interaction of hyper-IL6 (HIL6; monomer or dimer), and its components IL6 and sIL6R, with different anti-HIL6 binding domains in scFv, SMIP, Xceptor and reverse Xceptor formats were determined using a Biacore® T100 instrument (GE Healthcare, Piscataway, N.J.).
(§2) Anti-HIL6 SMIPS, Xceptors, and reverse Xceptors were captured by a monoclonal mouse anti-human Fc, which was covalently conjugated to a carboxylmethyl dextran (CM4) surface via amines using N-ethyl-N′-(3-dimethylaminopropyl)-carbodiimide hydrochloride and N-hydroxysuccinimide. The unoccupied sites of the activated surface were blocked by ethanolamine. […] In every cycle, three different HIL6 binders were captured on flow cells 2, 3 and 4, while flow cell 1 was used as the reference cell. For each cycle, a single concentration of a single HIL6-related molecule was injected for 150 seconds at 35 microliters per minute, and then allowed to dissociate for 300 seconds. At the end of the cycle, the surface was regenerated gently using 3M MgCl₂, which dissociates protein bound to anti-hFc capture antibody. Multiple cycles were performed to study binding of monomeric or dimeric HIL6 at different concentrations, in the range of 0-100 nM, for each set of three HIL6 binders captured. […] The experiment was performed at 25° C. Signal associated with binding to the reference cell was used to subtract for bulk refractive changes and blank (buffer-only) injections were used to correct for drift and system noise. The kinetic parameters and affinities were determined using BIAevaluation software. Anti-HIL6 scFv molecules were analyzed in the reverse orientation using a dimeric human HIL6/mouse IgG Fc fusion protein captured by an immobilized rabbit polyclonal anti-mouse IgG Fc antibody on the surface and injecting different concentrations of scFv over the surface. For the HIL6 components IL6 (eBioscience, catalog no. 14-8069) and sIL6R, a single 100 nM injection was performed to obtain a qualitative assessment of binding.

sIL6R Fc dimer [7] = target: T2, sIL6R Fc dimer; test: SPR Biacore T100, binder captured by anti-human Fc; remark: listed apart in the source
Procedure: as §1, §2

hu HIL6 AFH monomer [8] = target: T3, hu HIL6 AFH monomer; test: SPR Biacore T100, binder captured by anti-human Fc
Procedure: as §1, §2

recombinant human TNF-α [9] = target: T4, recombinant human TNF-α; test: sandwich ELISA, HIL-6 coated, Xceptor, then TNF-α
Procedure: The plate was covered, and incubated overnight at 4° C. […] The absorbance of each well was read at 450 nm.

T4 sequence (P01375 77-233 limits assumed): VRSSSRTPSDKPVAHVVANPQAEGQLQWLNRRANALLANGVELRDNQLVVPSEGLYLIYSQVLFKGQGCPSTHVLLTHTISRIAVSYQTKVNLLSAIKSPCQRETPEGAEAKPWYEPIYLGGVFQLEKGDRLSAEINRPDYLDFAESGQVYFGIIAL

Binder: B1
Kd (recombinant human TNF-α [1]): 0.0031 nM | Kd [2]: 61 nM | binding result (sIL6R Fc dimer [3]): no binding (tested: 100 nM) | Kd (hu HIL6 AFH monomer [4]): 4.9 nM | binding result [5]: no binding (tested: 75 pM sIL-6R)

Binder: B2
binding result (TRU(XT6)-1042): no binding (tested: 75 pM sIL-6R)

Binder: B3
Kd (recombinant human IL6): 0.44 nM | Kd [6]: 2.7 nM | binding result (sIL6R Fc dimer [7]): no binding (tested: 100 nM) | Kd (hu HIL6 AFH monomer [8]): 2 nM

Binder: B4
binding result (recombinant human TNF-α [9]): binds
